Experimental data as given in a protein production outcome set (Wang et al. 2014).

Experiment: label from the status in PepcDB records
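Also: failed if final PepcDB status was selected cloned or expressed and not failed if soluble or beyond.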

MKKQEKGNEVVTFEENPSTYVHHHTKKASMVLSEQEIEVILQSNKETYNEKLEKNTKENAEKVGIEEGNGSSSKITPCIFYTSDEKARLRWSSDLHDCFVNAVEKLGGPNKATPKSVKEAMEVEGIALHHVKSHLQKFRLGKCNIRGGTNQYVRQSQSMPHKSQQQLQLNNDCVNHDSYCNATFLSVTVPPTIDSLHQDTLNNTILFPTTLQAIPTSVSHNTYMSSYPSYNTVEVVKAQLNALQDSSTSQTQETFSRETNLSSIVTRDEADPVDKYIDWNKVGETDIEHDSVEVLEALGLK
protein production: failed

MKKQLIILTTLSTCIFLSACNDNNDSGSYVSSPSIPENNIQNPVVRMDAYTSTDMSLVANESLLMTYKMLGINNKEVQATALVFTPKGVPPVGGWPIVAWAHGTTGVADVCAPSRNVMDENVKTMITQLLAQGYVVVAPDYEGLGEPSGKEIHPFLNVKSEAYSITDAVVAAKSYLGAKAATRWVAVGHSQGGQAALGAAQYASRAKLTYKGTIAVAPASNLDLILNAGELSAANQPVAVQIPTYTNLDTYTALITAGLRNPNPSLQYSQIFKTPSDSIAAQAESVCAPALGQSFAAGLTEYSNKNNNTLVGYGRTQDGFLNLPVVKNFTSTDGQPLTVKVSTPIKIYQGQADTTVPLIATNKLVTEAKLAGTNINFITNETWTHGSAYSLNISNIVTDVNTLFTQ
protein production: failed

MKKRIILLLAVIIAAAAAGVAFYVAKDKGHEKAADVSVNTESGDELLVSITDTDLLTKYYENDKVIHEEKLTSYPAFALDQKQQVLYYTGNNEQNEMRLFKLDLKSHKKTMLYKGAESADSLFLSKDRSTIYFRLGKADESNFRIAAFDLKTKKYKNLYPAANDQDDTVSSFFYNQKNDSFALLHYSVEEDYKKTDEANEKGIDPEPTTIHFAEGRQNKFNELKSLNQFISDIAVSDDDKRILFTSYTQKGTEQTASIQMLNADTKKYESIISNQKSFKLLIDAQPQFSKDGKNIYFLAEAKGAKKLKDETGREAKVRTIYSYSLENKTFKKVWENPNGIINSFFVIN
protein production: failed

MKKRILSAVLVSGVTLGTAAVTVNADDFDSKIAATDSVINTLSGQQAAAQNQVTAIKGQVGALESQQSELEAQNAQLEAVSQQLGQEIQTLSNKIVARNESLKKQVRSAQKGNLTNYINTILNSKSVSDAVNRVVAIREVVSANEKMLAQQEADKAALEAKQIENQNAINTVAANKQAIENNKAALATQRAQLEAAQLELSAQLTTVQNEKASLIQAKAQAEEAARKAAEAQAAAEAKAQAEAKAQAESVAKAQAAAQVESATAPTETVQTQPRTEIKPSNLTATSSATTVATTTATATNEPKVTQPSVVTKAVEAPKAVVSSTPRAVSKPVVRSYDSSNTYPMGQCTWGAKSMASWVGNYWGNANQWGASARAAGYSVGTTPRVGAVAVWPYDGGGYGHVAVVTSVANNSSIQVMESNYAGNMSIGNYRGSFNPSASGSVYYIYPN
protein production: failed

MKKRILSAVLVSGVTLSAAASVHAEDYDSQIAATNNAISNLASQQEAAQAQVATIQSQVSTLRTQKTELEAKNAELEKVSADLESEIQELSSKIVARQDSLAKQARSAQQNNTATSYINSILNSKSISEAITRITAISKVVTANNDLLTKQESDQKELAAKQEENQAAINTIAANKSELETTEAGLTTQQAELEAAQVTLAAELATAQNEKTSLVSAKSTAESVAASTAASVAQSQAIAESEATAQVVASSEAATSVASSEVAATSEAVAQPSETPVSETSTASEAAQEPASSETSEVQPESAAPAVSEAPASVAPVATSEAAPATSEAPASVAPVATSEAAPAVSEAPAPAAETHKVSAASTPNTYPVGQCTWGVKSLAPWAGNNWGNAKNWIASAQAAGHSVGTTPVAGAIAVWPNDGGGYGHVAYVTSASGANSIQVMESNYAGNMSISNYRGTFDPTSSAHGGSVFYIYPLEHHHHHH
protein production: not failed

MKKRYKNPEKSGSCGNFIQAIKMTDKVQPLESLSKKPEEPKIVVNLRRIKRKIMVMSGKGGVGKSTVAANLAVGLALRGHRVGLLDCDIHGPTVPTIFGLESARPGVSEEGILPIEVLPNLSVMSIGFLLENKDSPIIWRGPAKMGAIKQFLEEVFWGALDFLIIDLPPGTGDEPLSVAQLIPNCDGSVLVTTPQDVALISVRKSITFSEKLNVPIIGLVDNMHGLICPHCGKPIEVFGSGGVEKASKDFNIPILARLPIEPGVAEMEDRGTVVQDQLKHGTEWQKNFDNVVDAVEKILEKELEHHHHHH
protein production: not failed

MKKSLIAFILIFMLVLSGCGMKDNDKQGSNDNGSSKSPYHRIVSLMPSNTEILYELGLGKYIVGVSTVDDYPKDVKKGKKQFDALNLNKEELLKAKPDLILAHESQKATANKVLSSLEKQGIKVVYVKDAQSIDETYNTFKQIGKLTHHDKQAEQLVEETKDNIDKVIDSIPAHHKKSKVFIEVSSKPEIYTAGKHTFFNDMLEKLEAQNVYSDINGWNPVTKESIIKKNPDILISTEAKTRSDYMDIIKKRGGFNKINAVKNTRIEVVNGDEVSRPGPRIDEGLKELRDAIYRK
protein production: failed

MKKTKVHLISGFLGTGKTTALKSLMAQKDPNEKWVIIVNEFGEIGIDGAVLSDNGIPVAEIAGGCLCCTAGPQMGVTVQKMLRDAKPDRLMIEASGLAHAASVIDELKTKPLDSLLEIGAVFTVVDPRQFINPDYAQQALYKDQIGICDVLVASKTDLCTPEQLAEFHDKAAKLFPPKAKVVEVQNAQLDIQWLDIPVIEKSRYRLKALPDNTMGFQSQGFTFPAGRDFDGEKLTNFFNDLPNMTEGLVRAKGVFQVLGTWVWLNWVDGQWGANQVSWRRDSRFELIAKSFDADLIEQKLKDALELEHHHHHH
protein production: failed

MKKTLILGATPETNRYAYLAAERLKSHGHEFIPVGRKKGEVLGKTIINERPVIEGVDTVTLYINPQNQLSEYNYILSLKPKRVIFNPGTENEELEEILSENGIEPVIGCTLVMLSAGTF
protein production: not failed

MKKTLPKTEAPSSVGNGSDSPIEFDAIIRQVPDMDAAYVEIPFDVKTVYGKGRVRVNATFDGYPYTGYIVRMGLPCHILGLRQDIRRAIGKQPGDSVYVTLLPL
protein production: not failed

MKKTLSVLVISSLLFGANVQAAALNAAQEKEVRALVRDTLVSNPEILEEAIMALQTKKADEQQAQFRQALASEHDALYNDAASPRIGAKDAKLVLVSFTDYNCPYCKRFDPLLEKITEQYPDVAVIIKPLPFKGESSAKASQAVLSVWKEDPKAFLALHQRLMQKKTMLDNASIEDAMKSTNTSKIKLTDDSLKTLQNNLELSRKLGIQGTPATVIGDTILPGAVDYDQLEIIVKEQLAKVKK
protein production: failed

MKKTLVIVVHPDLTKSVINKAWAKAIEGAATIHHLYEQYPNGQIDLAHEQALLEAHDRIVFQFPLYWYAAPYLLKKWMDEVFTEGWAYGAGGDKMEGKEICAAVSCGSPKSAFAEGAQQCHTLRSYLNVFDGIAAFLRARFTGYHACYDSYNPRLPEMLPANCEAYLRFIKGE
protein production: failed

MKKTMAKSLSVIIPACNEIDTISDVIQSVKGLNPLEIIVVANGCTDGTETVAEHLGCKVLRYTEKLGNDVGRAAGAKEAIGDVLLFIDGDFAIQTSKLQLFLNPILYNQADVVLNNLDALFLKRQKPNSITVWRQILNSILEREELKIDSLLAVPHALTKEVVQSIGYECFVNPILAHLRLVQGKWRISRHCAIDVITPNKFRPTEHAAYGTDLSPSEKRMIGDHIEAVAERIVGSDERGGYCDGNRKRDSVYHTLDFEDFYQGWGVTSNLYKGKQLSVIIPVQNEEKTIGNVIEEVRKIEPFEIIVVVNGSSDQTATIAKDKGATTIVYKEALGNDVGRSLGTYFAKGEIVLFIDGDFVIPASELYPFAKAIADGTDVALNDLNHYLDLRVPLHLVTAFKYALNLACDRKDLGVGSLVAVPNAFSRKCLKQIGYRSLLAPCVAQVKAILSGFEVACVSRVEVDKMNRIRPSEHLAKIGHPPAVLRIIGDHIEGLEQLIGLTGSRGGFHDGNRKRDIL
protein production: failed

MKKTPIYVEISIQAEMERLWRYTQDPTLHRQWDLRFTDITYLKRRPGEPQRFLYETRIGFGLKISGTGESAGNVFQDTGDRVSSLKFATNHPLSVIREGRGYWKYSESETGITFMTQYDYDTRYGRLGRLADMAFRPLLGWATAWSFDALKIWLEKGLHPRLLFQKTLVYWLVCLLFSFVWIYQGLVPKLIMAHPGEISMLSAFTGGRFHPETLLRLIGLAEVMVGVLWLYPVRKRKWFLLHIVLLVLLSASAGMADIASFAEPFNPVVLNAALIILSVIGYVSACGIPNAGNTIRKRR
protein production: failed

MKKVFDVWDVETAKRFLEIIKDEPIYYPALIALHTGMRAGEILSLKWCDVNFETRVISIVKSERKNRGLKTVNLKTKTSKRAVYMNDILYKELKNLYEITKPKPDDFVCPRLPTGNLTVNYLSRKFKKLVKKHNFPLIRFHDLRHTFATLMLSLGVNTKIVAEILGHSDIKLTADTYSHVLPTMQEEAMKEFVKLWKLEHHHHHH
protein production: not failed

MKKVSIIIPFKGQTEAELMLPLSSIYNQIGVDLSQLDIHLVNDGGKTIDLSKFDVLADRLEIHYHEIPNGGPGVARQYGIDNSISEYIMFIDADDVLYYVGALWPFYNASNQGHQMIRASYWEQIAGNPYTYTVHGNGDRKAAYGKWYKRSYIEMLGLRFMPDLPIYEDTYFVGLACELATDTCFLEEKVYMWLANPNSITRTVENKFNYQAHIYARENRYWFEMIRKWKPECLEHHHHHH
protein production: failed

MKKVSIIIPFKGQTEAELMLPLSSIYNQIGVDLSQLDIHLVNDGGKTIDLSKFDVLADRLEIHYHEIPNGGPGVARQYGIDNSISEYIMFIDADDVLYYVGALWPFYNASNQGHQMIRASYWEQIAGNPYTYTVHGNGDRKAAYGKWYKRSYIEMLGLRFMPDLPIYEDTYFVGLACELATDTCFLEEKVYMWLANPNSITRTVENKFNYQAHIYARENRYWFEMIRKWKPECLVTDFENYLTNMYLKSQKYPPVDEKAWWEEQHKLITSVSDIFSGWTQELQKQVEDKSANPQNEWHGIETDGFKEWATQSLPW
protein production: failed

MKKYIKPSAILLTLILSACSETKTVQQLISSGNSFVQVRDFSSAVIEFKNAVRLEPKNANARFELGNAYLEQGNFVNAEKEFSRAVELGLDFSNIAALMARVNTHLDKADEVYQLVERSDELTDDDYVEVLTYAGITALKQNRISQGQDYLTQAIVINPDAAYSRIAQAYVHYADREFSQGIVVISNLLNEKTDATEAMLIQGHLYYAQQEFEHASGAFALYLNYHPQDHKIRFFEVNSLIKAEKFEQANVITNTLLKAFKDSSLALQFKAQLEYQKKNYSAARDYAEEALQHGQDFLGAKIIAGVSSYFLGDVEQAYTKLNGIVERVPNNLLVKKILAVTKFELGYYADAAENFSSLEGLTSADLQLLKSSSASLMGIGYVDNALSLINKAEEFSPDNAQVAAQKGLMLLSQNDISGINSMKRAVELDPSLTYVQVALAIGYLNIGEENKAQKIADLYKDKIDEADVGHVLEGFIYLNNKQSANAQVSFEKALSLNPKNIASLYNLGLLHKRAAENSKAIIYFDRLIALSPEHKGALKSLVSIAVNKEYLEEVLTILVRNHQTDNLYSIIALAQVLRIDQQVAKAVTTLGGIDKSVKLTSNYFMLLGDSYLELEKYLKANAIFEQGLALEPKDYLLNIRYISTLEWLGDYTAALDQTRRLHKYYPNNINITTSLIYLEVRNKNYQEAKYLLEAIKGQKSNHHQLDAIAGEIYSYEKDYPQAIEHFSVVYEKEPTELNLLNLARTLGFDKQNKQAERLLELYLDKNPNNSKIRFLLAELYNPQDRKKRVVQYQVLSTQIPNNAIVFNNLAWNQFKLKQTAEALINIEKAYQLQPDSLAIQESYGVILIANNKLSQGINILESAILSGSTDAAAKEYLIKAKTLLNNQGKSSG
protein production: failed

MKKYSTIPTPCYVLESERLEKNAKILEIVRQQSGAKVLLALKGYAFWREFGILRQKLNGCCASGLYEAKLAFEEFGGRESHKEICVYSPAFKEAEMSAILPLATSIIFNSFYQYATYKDRILDKNKQLENLGLSPIKMGLRINPLYSEVTPAIYNPCSKVSRLGITPSGFEKGVKEHGLEGVSGLHFHTHCEQNADALCRTLEHVEKHFRPYLENMAWVNFGGGHHITKSDYDVNLLIQTIKDFKERYHNIEVILEPGEAIGWQCGFLIASVIDIVQNDQEIAILDASFSAHMPDCLEMPYRPSIFKVSVENDEELIEVEKGENQGAFSYFLGGPTCLAGDFMGSFSFETPLKRGDKIVFQDMLHYTIVKNNSFNGVPLPSLARLDQQGFKILKNFSYEDYKNRN
protein production: failed
